Results taken from publication PMC10881151.

Experiments:
[1] = target: Drp1-S579D (phosphomimetic mutant of human DRP1 isoform 3) (human); assay: co-sedimentation
[2] = target: Drp1-S600D (phosphomimetic mutant of human DRP1 isoform 3) (human); assay: co-sedimentation

percent less Drp1 and Mff in the pellets than for Drp1-WT [1]: 50%
percent less Drp1 and Mff in the pellets than for Drp1-WT [2]: 50%
Substance: MFF-∆TM (truncated human MFF isoform 4) (from UniProt Q9GZY8-4 1-218) (domain or fragment)
